The target of test [1] is T1, human BACE1 ectodomain (human, UniProt P56817 22-457).
T1 construct: extracellular domain; also called the ectodomain of human BACE1
The experiment in a line: SPR (Biacore), pH 4.5. In general terms: SPR reads the build-up and loss of mass on a sensor chip optically.

Test [2] addresses T2, mouse BACE1 (mouse, UniProt P56818 46-457, limits assumed). Kind of test: SPR (Biacore), pH 4.5.
Test [3] addresses T1, human BACE1 ectodomain. The experiment in a line: SPR (Biacore), pH 7.0.
Test [4] deals with T2, mouse BACE1. Kind of test: SPR (Biacore), pH 7.0.
The target in test [5] is BACE1 of primary cultured mouse neurons (mouse, UniProt P56818 46-501). Kind of test: cell-based or functional assay.
Sequence of BACE1 of primary cultured mouse neurons (P56818 46-501): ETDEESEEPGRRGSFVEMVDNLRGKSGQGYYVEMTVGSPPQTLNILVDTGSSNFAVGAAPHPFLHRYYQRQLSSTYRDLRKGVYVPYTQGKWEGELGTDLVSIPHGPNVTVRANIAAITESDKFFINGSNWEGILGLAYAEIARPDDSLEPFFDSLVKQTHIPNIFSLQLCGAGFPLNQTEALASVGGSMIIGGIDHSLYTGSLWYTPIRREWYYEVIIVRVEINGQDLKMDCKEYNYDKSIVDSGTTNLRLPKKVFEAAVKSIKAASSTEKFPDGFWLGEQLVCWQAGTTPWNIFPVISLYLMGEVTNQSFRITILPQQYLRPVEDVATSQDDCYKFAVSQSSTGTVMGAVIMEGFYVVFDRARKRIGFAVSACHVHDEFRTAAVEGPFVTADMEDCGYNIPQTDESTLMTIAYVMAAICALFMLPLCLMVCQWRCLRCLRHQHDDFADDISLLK
Test [6] has as its target recombinant BACE1 of the cell-free enzymatic assays (FRET assay, MBP-ELISA) (human, UniProt P56817 46-460, limits assumed). The experiment in a line: cell-based or functional assay.

T1 sequence (P56817 22-457): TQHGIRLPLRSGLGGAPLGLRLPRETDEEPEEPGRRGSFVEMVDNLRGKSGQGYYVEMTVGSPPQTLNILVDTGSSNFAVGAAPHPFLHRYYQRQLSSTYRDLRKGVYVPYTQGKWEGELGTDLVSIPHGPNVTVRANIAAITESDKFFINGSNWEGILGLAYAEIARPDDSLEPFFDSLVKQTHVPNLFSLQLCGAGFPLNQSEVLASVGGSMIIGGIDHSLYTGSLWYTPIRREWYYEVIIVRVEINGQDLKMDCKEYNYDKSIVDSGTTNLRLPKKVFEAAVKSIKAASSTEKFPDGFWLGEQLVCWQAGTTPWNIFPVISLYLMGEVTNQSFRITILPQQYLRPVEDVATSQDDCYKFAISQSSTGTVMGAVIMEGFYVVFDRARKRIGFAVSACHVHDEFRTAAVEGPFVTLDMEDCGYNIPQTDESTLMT
Sequence of recombinant BACE1 of the cell-free enzymatic assays (FRET assay, MBP-ELISA) (P56817 46-460 limits assumed): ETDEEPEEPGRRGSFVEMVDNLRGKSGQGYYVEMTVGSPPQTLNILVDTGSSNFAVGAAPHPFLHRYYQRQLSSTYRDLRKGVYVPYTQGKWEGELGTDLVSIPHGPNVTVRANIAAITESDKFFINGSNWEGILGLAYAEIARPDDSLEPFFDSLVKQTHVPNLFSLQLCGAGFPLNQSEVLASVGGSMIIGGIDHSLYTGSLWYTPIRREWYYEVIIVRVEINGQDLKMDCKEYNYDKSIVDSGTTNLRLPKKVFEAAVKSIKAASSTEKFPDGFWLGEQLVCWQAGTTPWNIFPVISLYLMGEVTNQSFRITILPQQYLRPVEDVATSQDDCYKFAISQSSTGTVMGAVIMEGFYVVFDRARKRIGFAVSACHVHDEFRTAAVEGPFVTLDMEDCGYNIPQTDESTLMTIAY
T2 sequence (P56818 46-457 limits assumed): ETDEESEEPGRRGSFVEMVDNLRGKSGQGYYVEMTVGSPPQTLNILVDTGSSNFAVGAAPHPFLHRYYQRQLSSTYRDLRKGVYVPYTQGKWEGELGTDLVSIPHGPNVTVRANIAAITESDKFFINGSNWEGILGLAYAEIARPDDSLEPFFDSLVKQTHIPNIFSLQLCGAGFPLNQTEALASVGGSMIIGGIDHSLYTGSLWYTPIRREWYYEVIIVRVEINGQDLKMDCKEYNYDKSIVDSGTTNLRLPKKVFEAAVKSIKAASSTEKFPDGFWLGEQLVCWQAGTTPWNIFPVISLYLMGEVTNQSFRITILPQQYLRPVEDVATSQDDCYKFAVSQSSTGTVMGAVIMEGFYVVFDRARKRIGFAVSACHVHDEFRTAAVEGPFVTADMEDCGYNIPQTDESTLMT

B1: NANOBODY B9 (Nb_B9) (VHH)
VHH: DVQLQESGGGSVQAGGSLRLSCAASEYTYGYCSMGWYRQAPGKERELVSTITSDGSTSYVDSVKGRFTISQDNAKNTVYLQMNSLKPEDTAKYYCYTKTCANKLGAKFISWGQGTQVTVSS
notes: dromedary VHH; his-tagged from E. coli; HA-tagged periplasmic extract in the ELISA screen; also called VHH B9; not shown: C-terminal his6-tag (pHEN6)
With B1, the dissociation constant Kd was determined as 1.96 nM in test [1], 1.11 nM in test [2], 3.67 nM in test [3] and 1.77 nM in test [4]. Besides, the dissociation rate constant (koff) came out at 0.0013 s⁻¹ in test [1], 0.00118 s⁻¹ in test [2], 0.00098 s⁻¹ in test [3] and 0.00089 s⁻¹ in test [4]. The kon worked out at 662000 M⁻¹ s⁻¹ in test [1], 1.06e+06 M⁻¹ s⁻¹ in test [2], 267000 M⁻¹ s⁻¹ in test [3] and 502000 M⁻¹ s⁻¹ in test [4]. Also, the “IC50 (CTFβ level) in the neuron assay” value in test [5] was approximately 500 nM. The “EC50, FRET assay dose-response” value in test [6] was found to be 4.1 nM.

B2: NANOBODY 10C4 (Nb_10C4) (VHH)
VHH: QVQLQESGGGSVQAGGFLRLSCAASGYTYSTCSMAWYRQAPGKERELVSSIRNDGSTAYADSVKGRFTISQDNAKNTVYLQMNSLKPEDTAMYYCNIRIGVGPGGTCSIYAPYWGEGTQVTVSS
notes: from the dromedary libraries; purified from pHEN6; not shown: C-terminal his6-tag (pHEN6)
Consider B2, for which the Kd in test [1] is 27.7 nM; in test [2] it was 10 nM; in test [3], 74.7 nM; in test [4], 41.9 nM. In addition, the koff in test [1] turned out to be 0.0125 s⁻¹; in test [2], 0.00988 s⁻¹; in test [3], 0.00792 s⁻¹; in test [4] it was 0.00797 s⁻¹. The kon in test [1] was 451000 M⁻¹ s⁻¹; in test [2] it was 984000 M⁻¹ s⁻¹; in test [3] it was 106000 M⁻¹ s⁻¹; in test [4] it was 190000 M⁻¹ s⁻¹. The “IC50, FRET assay dose-response” value in test [6] was 150 nM.

B3: NANOBODY 4A2 (Nb_4A2) (VHH)
VHH: QVQLQESGGGLVQPGGSLRLSCAASGFTFETQYMTWVRQAPGKGPEYVSSINSGGTIKYYANSSVKGRFTISRDNAKNTLYLQMNNLRPEDTAIYYCQLGQWAGVGAASSRGQGTQVTVSS
notes: from the llama library; purified from pHEN6; not shown: C-terminal his6-tag (pHEN6)
For the molecule B3, the Kd is 21.2 nM in test [1], 8.61 nM in test [2], 48.2 nM in test [3] and 35.2 nM in test [4]. Also, the koff amounted to 0.00841 s⁻¹ in test [1], 0.00216 s⁻¹ in test [2], 0.0231 s⁻¹ in test [3] and 0.00581 s⁻¹ in test [4]. For the same molecule, the kon in test [1] was 397000 M⁻¹ s⁻¹; in test [2], 251000 M⁻¹ s⁻¹; in test [3], 479000 M⁻¹ s⁻¹; in test [4], 165000 M⁻¹ s⁻¹. Besides, the “IC50, FRET assay dose-response” value in test [6] is 1200 nM.

The term Kd denotes the constant that tells how readily two partners part at equilibrium. Low values mean higher affinity, high ones lower affinity. Usually koff stands for a measure of how fast the partners let go of each other. Low readings indicate slow dissociation, high ones fast dissociation. Usually kon stands for the second-order rate constant of association.

Values taken from patent US20180230232A1 (VIB VZW, published 2018).
